Data reported in US20060241020.

T1: AEGELpYGSLYA (Sap1 example phosphopeptide)
T1 chain: AEGELYGSLYA

T2: EFpYGAFA (Sap1 example phosphopeptide, A form of EFpYGAFA/G)
T2 chain: EFYGAFA

T3: EFpYGAFG (Sap1 example phosphopeptide, G form of EFpYGAFA/G)
T3 chain: EFYGAFG

B1: PTP-β wild type (GST fusion of the catalytic domain) (protein)
chain: RQKVSHGRERPSARLSIRRDRPLSVHLNLGQKGNRKTSCPIKINQFEGHFMKLQADSNYLLSKEYEELKDVGRNQSCDIALLPENRGKNRYNNILPYDATRVKLSNVDDDPCSDYINASYIPGNNFRREYIVTQGPLPGTKDDFWKMVWEQNVHNIVMVTQCVEKGRVKCDHYWPADQDSLYYGDLILQMLSESVLPEWTIREFKICGEEQLDAHRLIRHFHYTVWPDHGVPETTQSLIQFVRTVRDYINRSPGAGPTVVHCSAGVGRTGTFIALDRILQQLDSKDSVDIYGAVHDLRLHRVHMVQTECQYVYLHQCVRDVLRARKLRSEQENPLFPIYENVNPEYHRDPVYSRH
B2: PTP-Sap1 wild type (GST fusion of the catalytic domain) (protein)
chain: LKRRNKKKQQKPELRDLVFSSPGDIPAEDFADHVRKNERDSNCGFADEYQQLSLVGHSQSQMVASASENNAKNRYRNVLPYDWSRVPLKPIHEEPGSDYINASFMPGLWSPQEFIATQGPLPQTVGDFWRLVWEQQSHTLVMLTNCMEAGRVKCEHYWPLDSQPCTHGHLRVTLVGEEVMENWTVRELLLLQVEEQKTLSVRQFHYQAWPDHGVPSSPDTLLAFWRMLRQWLDQTMEGGPPIVHCSAGVGRTGTLIALDVLLRQLQSEGLLGPFSFVRKMRESRPLMVQTEAQYVFLHQCILRFLQQSAQAPAEKEVPYEDVENLIYENVAAIQAHKLEV

What was measured:
[1] = target: the GST-peptide (PTP-β clone as GST fusion in the dephosphorylation assay)
[2] = target: T1, AEGELpYGSLYA (Sap1 example …)
[3] = target: T2, EFpYGAFA (Sap1 example phosphopeptide, …)
[4] = target: T3, EFpYGAFG (Sap1 example phosphopeptide, …)
[5] = target: all the clones tested (PTP-Sap1 clones as GST-peptides in the dephosphorylation assay)

| Protein | dephosphorylation assay on GST-PEP constructs [1] | Km [2] | Km [3] | Km [4] | dephosphorylation assay on GST-PEP constructs [5] |
| --- | --- | --- | --- | --- | --- |
| B1 | the dephosphorylation of the GST-peptide was weak (not shown) as compared to the same experiment on PTP-Sap1 | – | – | – | – |
| B2 | – | Km=7.6 uM | Km=7.0 uM | Km=7.0 uM | Dephosphorylation assays showed a conserved enzymatic activity for all the clones tested (not shown) |
